Where two headings read alike, the source gives them in different places. In the oligonucleotide strings, read from the 5' end, every base follows the letter of its sugar. An asterisk marks phosphorothioate; unmarked linkages are phosphodiester. Other units and linkages are bracketed, terminal groups are in braces. A string of capitals states the bases alone. m = 2'-O-methyl; r = 2'-OH (RNA)
B1: GA110: ANGPTL3 gRNA; protospacer GACCATGTCCCAACTGAAGG (SEQ ID NO: 108) (nucleic acid)
guide: GACCATGTCCCAACTGAAGGGTTTTAGAGCTAGAAATAGCAAGTTAAAATAAGGCTAGTCCGTTATCAACTTGAAAAAGTGGCACCGAGTCGGTGCTTTT
modifications: 2'-O-methyl at 1, 2, other sugars and backbone not given here; further chemistry not fully specified
B2: GA391 (nucleic acid)
guide: mC*mC*rGrCrArCrCrUrUrGrGrCrGrCrArGrCrGrGmGrUrUrUrUrArGmAmGmCmUmArGmAmAmAmUmAmGmCmAmArGrUrUmArAmArAmUrAmAmGmGmCmUmArGrUmCmCrGrUrUrAmUmCrArAmCmUmUrGmAmAmAmAmAmGmUmGrGmCmAmCmCmGmAmGmUmCmGmGmUmGmCmU*mU*mU*mU
B3: GA090: PCSK9 gRNA for ABE8.8 splice site editing, Human/Cyno (nucleic acid)
guide: GCAGGTGACCGTGGCCTGCGGTTTTAGAGCTAGAAATAGCAAGTTAAAATAAGGCTAGTCCGTTATCAACTTGAAAAAGTGGCACCGAGTCGGTGCTTTT
modifications: listed as RNA; modified_base 1: mod_base = OTHER; note = 2'-O-Methyl-guanosine phosphorothioate; modified_base 2: mod_base = OTHER; note = 2'-O-Methyl-cytidine phosphorothioate; modified_b
notes: PCSK9 gRNA for ABE8.8 splice site editing, Human/Cyno
B4: GA109: ANGPTL3 gRNA; protospacer GGCCTCCTTCAGTTGGGACA (SEQ ID NO: 107) (nucleic acid)
guide: GGCCTCCTTCAGTTGGGACAGTTTTAGAGCTAGAAATAGCAAGTTAAAATAAGGCTAGTCCGTTATCAACTTGAAAAAGTGGCACCGAGTCGGTGCTTTT
modifications: 2'-O-methyl at 1, 2, other sugars and backbone not given here; further chemistry not fully specified
B5: GA111: ANGPTL3 gRNA; protospacer GCCAATGGCCTCCTTCAGTT (SEQ ID NO: 109) (nucleic acid)
guide: GCCAATGGCCTCCTTCAGTTGTTTTAGAGCTAGAAATAGCAAGTTAAAATAAGGCTAGTCCGTTATCAACTTGAAAAAGTGGCACCGAGTCGGTGCTTTT
modifications: 2'-O-methyl at 1, 2, other sugars and backbone not given here; further chemistry not fully specified
B6: GA108: ANGPTL3 gRNA; protospacer TCCCAACTGAAGGAGGCCAT (SEQ ID NO: 106) (nucleic acid)
guide: UCCCAACTGAAGGAGGCCATGTTTTAGAGCTAGAAATAGCAAGTTAAAATAAGGCTAGTCCGTTATCAACTTGAAAAAGTGGCACCGAGTCGGTGCTTTT
modifications: 2'-O-methyl at 1, 2, other sugars, backbone and T or U not given here; further chemistry not fully specified
B7: GA113: ANGPTL3 gRNA; protospacer ATTCTGGAGGAAATAACTAG (SEQ ID NO: 111) (nucleic acid)
guide: AUTCTGGAGGAAATAACTAGGTTTTAGAGCTAGAAATAGCAAGTTAAAATAAGGCTAGTCCGTTATCAACTTGAAAAAGTGGCACCGAGTCGGTGCTTTT
modifications: 2'-O-methyl at 1, 2, other sugars, backbone and T or U not given here; further chemistry not fully specified
B8: GA129: ANGPTL3 gRNA; protospacer AGTTCTTGGTGCTCTTGGCT (SEQ ID NO: 127) (nucleic acid)
guide: AGTTCTTGGTGCTCTTGGCTGTTTTAGAGCTAGAAATAGCAAGTTAAAATAAGGCTAGTCCGTTATCAACTTGAAAAAGTGGCACCGAGTCGGTGCTTTT
modifications: 2'-O-methyl at 1, 2, other sugars and backbone not given here; further chemistry not fully specified
B9: GA115: ANGPTL3 gRNA; protospacer AACATAGCAAATCTTGATTT (SEQ ID NO: 113) (nucleic acid)
guide: AACATAGCAAATCTTGATTTGTTTTAGAGCTAGAAATAGCAAGTTAAAATAAGGCTAGTCCGTTATCAACTTGAAAAAGTGGCACCGAGTCGGTGCTTTT
modifications: 2'-O-methyl at 1, 2, other sugars and backbone not given here; further chemistry not fully specified

Key:
ANGPTL3 gene [1] = assay: ANGPTL3 gRNA/SpCas9 editing in primary human hepatocytes (Table 3); assay type: cell-based
Experimental: (§1) In set of experiments, PCSK9 gRNAs were co-transfected with an equivalent amount (1:1 ratio by weight) of in vitro transcribed commercially available SpCas9 mRNA MS002 purchased from TriLink Biotechnologies into primary human hepatocytes at 2500, 500, or 100 ng/RNA/mL and processed as described in detailed methods. Extracted genomic DNA was analyzed for gene editing at the target site with next-generation sequencing of PCR amplicons generated around the target sites. Samples were prepared using the Nextera XT DNA library preparation kit (Illumina) according to the manufacturer's protocol. Briefly, two rounds of PCR were performed first to amplify the region of interest and second to add DNA sequences required for next generation sequencing and sample identification to the initial product. The final amplicon was sequenced on the Illumina MiSeq instrument according to the manufacturer's protocol. A wide range of editing activities (Table 2) were observed. In a second set of experiments, ANGPTL3 gRNAs were co-transfected with an equivalent amount of in vitro transcribed SpCas9 mRNA (1:1 ratio by weight) into primary human hepatocytes and processed and analyzed similarly (Table 3).
(§2) Plating, culturing, and transfection of primary hepatocytes. Primary human liver hepatocytes (PHH) and primary cynomolgus liver hepatocytes (PCH) from BioIVT were cultured per the manufacturer's protocol. Briefly, primary human hepatocytes and primary cyno hepatocytes were obtained as frozen aliquots from BioIVT. Four lots of primary human hepatocytes, each derived from a de-identified individual donor, were used for the experiments: STL (main donor) was used for all experiments, including screening experiments and off-target experiments; HLY, JLP, and TLY were used for off-target experiments. The HFG lot of primary cyno hepatocytes were used for experiments. Following the manufacturer's instructions, cells were thawed and rinsed prior to plating in 24-well plates that had been coated with bovine collagen overnight, with a density of approximate 350,000 cells/well in INVITROGRO hepatocyte medium supplemented with TORPEDO antibiotic mix (BioIVT). The cells were thawed and resuspended in hepatocyte thawing medium followed by centrifugation at 100 g for 10 min at 4° C. The supernatant was discarded, and the pelleted cells resuspended in hepatocyte plating medium. Each vial contains approximately 5 million cells that were used for plating one 24-well plate. Plated cells were allowed to settle and adhere for 4-6 h in a tissue culture incubator at 37° C. under 5% CO2 atmosphere. After incubation, cells were checked for monolayer formation. The incubating media were then replaced with fresh hepatocyte maintenance media (complete INVITROGRO medium obtained from BioIVT, the cell line provider). The cells thus became ready for transfection. Each of the gRNAs were co-transfected with an equivalent amount of in vitro transcribed ABE8.8 mRNA (1:1 ratio by molecular weight) into primary human hepatocytes via MessengerMax reagent (Lipofectamine), using various dilutions to assess for editing activity at different concentrations of test article. MessengerMAX from Thermo Fisher is used for transfection. Solution A: desired amount of guide RNA is mixed with 1:1 wt ratio of mRNA in OptiMEM. Solution B: MessengerMAX in OptiMEM. After mixing solutions A and B, the mixture was incubated at room temperature for 20 min. 60 μL of the incubated solution was added dropwise to each cell wells. For protospacer sequences that were a perfect match to the corresponding cynomolgous monkey PCSK9 or ANGPTL3 gene sequence, each gRNA was also co-transfected with an equivalent amount of ABE8.8 mRNA (1:1 ratio by molecular weight) into primary cynomolgous hepatocytes, and followed the same transfection protocol. The cells were then allowed to remain at 37° C. for 3 days. […]

ANGPTL3 gene [2] = assay: ANGPTL3 gRNA/SpCas9 editing in primary cynomolgus hepatocytes (Table 3); assay type: cell-based, cynomolgus monkey
Experimental: as §1, §2

PCSK9 gene splice site = assay type: cell-based, human; settings: for Editing % at Position 6: Human Primary Hepatocytes, gRNA co-transfected with ABE8.8 mRNA 1:1 by weight
Experimental: PCSK9 gRNAs were co-transfected with an equivalent amount of in vitro transcribed ABE8.8 mRNA MA002 (1:1 ratio by weight) into primary hepatocytes and processed as described in detailed methods. In one set of experiments, extracted genomic DNA was analyzed for base editing of the target splice site with next-generation sequencing of PCR amplicons generated around the target sites. Samples were prepared using the Nextera XT DNA library preparation kit (Illumina) according to the manufacturer's protocol. Briefly, two rounds of PCR were performed first to amplify the region of interest and second to add DNA sequences required for next generation sequencing and sample identification to the initial product. The final amplicon was sequenced on the Illumina MiSeq instrument according to the manufacturer's protocol.
Similarly, three gRNAs (GA098, GA099, GA100) were synthesized matching the 5′-[…]-3′ (SEQ ID NO: 15) (GA091) human protospacer sequence, as well as four gRNAs (GA067/GA101, GA102, GA103, GA347) matching the 5′-[…]-3′ (SEQ ID NO: 14) (GA067) cynomolgus protospacer sequence, but with more extensive chemical modifications of various kinds (Table 1). GA066 and GA095 contain the same chemical composition and modification pattern, as do GA067 and GA101 with one another. […] Each of the gRNAs described in Table 8, with an equivalent amount of in vitro transcribed ABE8.8 mRNA MA002 (1:1 ratio by weight), were co-transfected into primary human hepatocytes and primary cynomolgus hepatocytes via MessengerMax reagent, using various dilutions to assess for editing activity at different concentrations of test article. Three days after transfection, genomic DNA was harvested from the hepatocytes, and then assessed for base editing of the target splice site with next-generation sequencing.
Modifications and/or truncations to either the spacer or tracr portion of the gRNA was assessed by alteration of the GA066 spacer (5′-[…]-3′ (SEQ ID NO: 13)) (Table 12). […] Each of the gRNAs with an equivalent amount of in vitro transcribed ABE8.8 mRNA (1:1 ratio by weight) were co-transfected into primary human hepatocytes and primary cynomolgus hepatocytes and processed as described in detailed methods. […]

Row | Molecule | Human Primary Hepatocyte Editing % 100 ng/ml (ANGPTL3 gene [1]) [%] | Human Primary Hepatocyte Editing % 500 ng/mL (ANGPTL3 gene [1]) [%] | Cyno Primary Hepatocyte Editing % 100 ng/mL (ANGPTL3 gene [2]) [%] | Cyno Primary Hepatocyte Editing % 500 ng/ml (ANGPTL3 gene [2]) [%] | further results
1 | B1 | 5.37 | 13.63 | 8.59 | 15.99 | 
2 | B2 |  |  |  |  | Editing % at Position 6 (PCSK9 gene splice site; 312.5 ng/mL, rep1): 16.86%; Editing % at Position 6 (PCSK9 gene splice site; 312.5 ng/mL, rep2): 15.78%; Editing % at Position 6 (PCSK9 gene splice site; 625 ng/mL, rep1): 27.12%; Editing % at Position 6 (PCSK9 gene splice site; 625 ng/mL, rep2): 18.67%; Editing % at Position 6 (PCSK9 gene splice site; 1250 ng/mL, rep1): 25.43%; Editing % at Position 6 (PCSK9 gene splice site; 1250 ng/mL, rep2): 27.3%; Editing % at Position 6 (PCSK9 gene splice site; 2500 ng/mL, rep1): 25.58%; Editing % at Position 6 (PCSK9 gene splice site; 2500 ng/mL, rep2): 30.06%
3 | B3 |  |  |  |  | Human Primary Hepatocytes-splice site editing % 1250 ng/mL (PCSK9 gene splice site): 0.3%; Human Primary Hepatocytes-splice site editing % 2500 ng/mL (PCSK9 gene splice site): 0.5%; Human Primary Hepatocytes-splice site editing % 5000 ng/mL (PCSK9 gene splice site): 0.4%
4 | B4 | 6.60 | 18.07 | 4.15 | 15.11 | 
5 | B5 | 10.72 | 24.08 | 22.61 | 28.98 | 
6 | B6 | 4.95 | 19.43 | 4.11 | 15.49 | 
7 | B7 | 6.00 | 19.97 | 12.07 | 26.67 | 
8 | B8 |  |  | 5.36 | 20.06 | 
9 | B9 |  |  | 12.58 | 25.51 | 

Reference: patent publication US20250152746A1, “BASE EDITING OF ANGPTL3 AND METHODS OF USING SAME FOR TREATMENT OF DISEASE” (Verve Therapeutics, Inc., priority 2020, published 2025)
